Experimental data from US20010029035A1, “Oligonucleotide conjugates” (priority 2000, published 2001).

Legend:
[1] = tested on: SSTR-positive CA20948 pancreas tumors; assay: Organ distribution study in CA 20948 tumor-bearing Lewis rats; details: rat, in vivo
Description: As explained in more detail below, PNA peptide conjugates were synthesized by means of Boc chemistry.
Organ distribution studies of the conjugate were carried out with tumor-bearing rats. […] The tumor cells are thawed, washed with PBS and suspended carefully. The cell suspension was transplanted subcutaneously into the flank of male Lewis rats (220-250 g) (about 2×10^6 cells in 0.1 ml). […] After 1 hour, the animals were killed and dissected. Various organs/tissue samples (tumor, blood, heart, lung, liver, stomach, kidney, spleen, muscle) were removed, weighed and the activity in the gamma counter was determined. In this way, % ID/g values could be obtained. The competitive uptake could be examined by injection of 100 μg octreotide, 30 min. prior to the application of the radioactive octreotide derivative.

[2] = in vivo; cited from earlier work

## Cc1cn(CC(=O)N(CCNC(=O)CN(CCNC(=O)CN(CCNC(=O)CN(CCNC(=O)CN(CCNC(=O)CN(CCNC(=O)CN(CCNC(=O)CN(CCNC(=O)CN(CCNC(=O)CN(CCNC(=O)CN(CCNC(=O)CN(CCNC(=O)[C@@H](N)Cc2ccc(O)c(I)c2)C(=O)Cn2cnc3c(N)ncnc32)C(=O)Cn2cnc3c(=O)[nH]c(N)nc32)C(=O)Cn2ccc(N)nc2=O)C(=O)Cn2cnc3c(=O)[nH]c(N)nc32)C(=O)Cn2cc(C)c(=O)[nH]c2=O)C(=O)Cn2cnc3c(=O)[nH]c(N)nc32)C(=O)Cn2ccc(N)nc2=O)C(=O)Cn2cnc3c(=O)[nH]c(N)nc32)C(=O)Cn2ccc(N)nc2=O)C(=O)Cn2ccc(N)nc2=O)C(=O)Cn2cnc3c(N)ncnc32)CC(=O)NCCN(CC(=O)NCCN(CC(=O)NCCN(CC(=O)N[C@H](Cc2ccccc2)C(=O)N[C@H]2CSSC[C@@H](C(=O)N[C@H](C(=O)O)[C@@H](C)O)NC(=O)[C@H]([C@@H](C)O)NC(=O)[C@H](CCCCN)NC(=O)[C@@H](Cc3c[nH]c4ccccc34)NC(=O)[C@H](Cc3ccccc3)NC2=O)C(=O)Cn2ccc(N)nc2=O)C(=O)Cn2ccc(N)nc2=O)C(=O)Cn2ccc(N)nc2=O)c(=O)[nH]c1=O [PNA conjugate]
[1]
  organ distribution compared with 3-Tyr octreotide (in words): approximately the same concentration in tumor and pancreas
  uptake into the tumor tissue (in words): selective uptake, which could be inhibited with an excess of octreotide

## C[C@@H](O)[C@@H]1NC(=O)[C@H](CCCCN)NC(=O)[C@@H](Cc2c[nH]c3ccccc23)NC(=O)[C@H](Cc2ccccc2)NC(=O)[C@@H](NC(=O)[C@H](N)Cc2ccccc2)CSSC[C@@H](C(=O)N[C@H](CO)[C@@H](C)O)NC1=O [Octreotide]
[2]
  biological half-life: about 90 min.
